Patent US20240392024A1 (SHANGHAI CELGEN BIO PHARMACEUTICAL, published 2024)
Values joined by “and” are separate entries in the source; they are usually repeats but may differ in a detail not shown here. Identical values can stand only once.

T1: TNFR2-His (Sino Biological, 10417-H08H, NP_001057.1 Met1-Asp257, with multi-histidine tag expressed on … (human, UniProt P20333 23-257))
T1 construct: range 1-257; Bought protein; also called recombinant human TNFR2 protein; TNFR2-His antigen; not shown: C-terminal multi-histidine tag
T1 sequence (looked up): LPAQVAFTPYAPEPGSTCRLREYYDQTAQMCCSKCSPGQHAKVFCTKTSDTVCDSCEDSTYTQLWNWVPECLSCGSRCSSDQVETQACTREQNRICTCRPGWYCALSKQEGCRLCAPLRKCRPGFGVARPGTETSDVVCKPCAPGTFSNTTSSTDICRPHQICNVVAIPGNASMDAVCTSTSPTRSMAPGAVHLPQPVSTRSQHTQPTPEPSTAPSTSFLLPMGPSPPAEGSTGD

T2: human TNFR2 on the cell membrane (human, UniProt P20333 23-461)
T2 construct: whole, on cells; One molecule for all cell formats; also called TNFR2-CHO cells; CHO-TNFR2
T2 sequence (looked up): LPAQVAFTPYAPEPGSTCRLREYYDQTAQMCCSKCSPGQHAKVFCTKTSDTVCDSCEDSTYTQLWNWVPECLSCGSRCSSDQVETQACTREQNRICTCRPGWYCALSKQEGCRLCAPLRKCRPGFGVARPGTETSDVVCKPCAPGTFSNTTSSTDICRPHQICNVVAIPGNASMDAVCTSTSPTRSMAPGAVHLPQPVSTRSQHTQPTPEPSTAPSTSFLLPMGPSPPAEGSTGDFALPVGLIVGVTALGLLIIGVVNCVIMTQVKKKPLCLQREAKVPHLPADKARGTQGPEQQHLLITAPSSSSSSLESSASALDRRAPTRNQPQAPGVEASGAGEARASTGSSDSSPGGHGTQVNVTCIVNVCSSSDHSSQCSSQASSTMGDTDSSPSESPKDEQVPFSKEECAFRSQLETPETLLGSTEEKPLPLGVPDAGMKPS


Columns and labels:
[1] = biological target: T1, TNFR2-His (Sino Biological, 10417-H08H, …); experiment: ELISA, plate coated with TNFR2-His (second test)
Method in brief: (§1)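 Antibodies were serially diluted and incubated on blocked ELISA plates coated with C-terminally His-tagged recombinant human TNFR2. Detection used an enzyme-labelled anti-IgG secondary antibody, TMB development and a microplate reader, and the dilution series gave the EC50.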

[2] = biological target: T1, TNFR2-His (Sino Biological, 10417-H08H, …); experiment: ELISA, plate coated with TNFR2-His
Protocol: To determine whether the human-mouse chimeric TNFR2 monoclonal antibody of the present invention can bind to recombinant human TNFR2 protein, in vitro ELISA test was conducted. Similar to the method described above, The plate was coated with TNFR2-His (Sino Biological, 10417-H08H, Assessment #NP_001057.1.Met1-Asp257, with multi-histidine tag expressed on C-terminus) antigens, and blocked with BSA, then added with gradient diluted human-mouse chimeric TNFR2 monoclonal antibodies for incubation. Then, secondary antibody Ap-anit-human IgG Fc (JacksonImmuno Research, 109-055-098) was added for incubation After TMB development, ELISA reading was performed.

[3] = biological target: T1, TNFR2-His (Sino Biological, 10417-H08H, …); experiment: ELISA, plate coated with TNFR2-His (first test)
Method in brief: as §1

[4] = biological target: T1, TNFR2-His (Sino Biological, 10417-H08H, …); experiment: BLI, antibody captured on AHC probe, TNFR2 in solution
Method in brief: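 Antibodies at 50 nM in Q buffer were held on antibody-capture sensors, and the sensors were then moved into recombinant human TNFR2 diluted 2-fold in Q buffer, starting from 100 nM. Q buffer was 10 mM PBS pH 7.4 with 0.02% Tween 20 and 0.2% BSA. The work used bio-layer interferometry on an Octet in Basic Kinetics mode, and Kon, koff and Kd come from these kinetic association measurements.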

[5] = biological target: T2, human TNFR2 on the cell membrane; experiment: flow cytometry on CHO-TNFR2 cells
Method in brief: (§2)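 Binding was measured by flow cytometry (Beckman CytoFLEX) on a CHO line stably overexpressing human TNFR2. Cells in 96-deep-well plates were exposed to serially diluted antibodies, washed and labelled with a fluorescent anti-IgG secondary antibody, and EC50 was determined across the dilutions.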

[6] = biological target: T2, human TNFR2 on the cell membrane; experiment: flow cytometry, CHO-TNFR2 cells
Method in brief: as §2

[7] = biological target: T2, human TNFR2 on the cell membrane; experiment: competition flow cytometry, TNFR2 positive cells, TNFα fusion protein at fixed concentration
Protocol: Purified anti-human TNFR2 human-mouse monoclonal antibodies were co-cultured with TNFR2 positive cells and stained. The antibody binding intensity was analyzed by flow cytometry. The specific steps are as follows: cells were counted, centrifugated, resuspended, then added to a 96-deep well plate, and the supernatant was discarded. Gradient diluted anti-TNFR2 antibodies and TNFα fusion protein of fixed concentration were added. After incubation and wash, the secondary antibody PE-streptavidin (Biogen, 405203) was added for incubation, and the samples were detected using Beckman CytoFLEX.

[8] = biological target: T1, TNFR2-His (Sino Biological, 10417-H08H, …); experiment: competition ELISA, coated TNFR2-His, biotin-labeled TNFα fusion protein at fixed concentration
Protocol: (§3) The ELISA plate was coated with TNFR2-His antigen (Sino Biological, 10417-H08H, Assessment #NP_001057.1. Met1-Asp257, with multi-histidine tags expressed on C-terminus) and blocked, added with the gradient diluted TNFR2 monoclonal antibodies and biotin-labeled TNFα fusion protein of fixed concentration for incubation, then added with the secondary antibody Ap-Strepavidin (Herobio, 510401) for incubation. After development, the detection was performed using microplate reader.

[9] = biological target: T1, TNFR2-His (Sino Biological, 10417-H08H, …); experiment: competition ELISA on coated TNFR2-His against biotin-labeled TNFα fusion protein at fixed concentration
Protocol: as §3

EC50 [1] | EC50 [2] [µg/mL] | EC50 [3] | Kd [4] [nM] | koff [4] [s⁻¹] | kon [4] [M⁻¹ s⁻¹] | EC50 [5] [µg/mL] | EC50 [6] [nM] | IC50 [7] [µg/mL] | IC50 [8] [µg/mL] | IC50 [9] | Binder
0.0346 µg/mL and 0.232 nM | 0.0396 | 0.0454 µg/mL and 0.304 nM | 3.27 | 0.00216 | 659000 | 0.0291 | 0.195 |  |  |  | human-mouse chimeric TNFR2 monoclonal antibody 12E12-hFc (antibody, V domains shown, Mouse V regions of clone 12E12 with human constant regions; also called human-mouse chimeric 12E12 antibody) VH: EVQLQQSGAELVKPGASVKLSCTVSGFNIKDFYIHWVKQRPEQGLEWIGRVDPEDGNTEYAPNFQDRATMTTDTSSNTAYLQLSSLTSVDTAVYYCSTWDGFSYFDYWGLGTTLTVSS VL: QAVVTQESALTTSPGETVTLTCRSSTGPVTTNNYANWVQEKPDHLFTGLIGGTNDRAPGVPARFSGSLIGDKTALTITGTQTEDEAVYFCALWYRNHWVFGGGTKLTVL
 | 0.0415 |  |  |  |  |  |  | 0.179 | 0.644 | 0.674 µg/mL and 4.52 nM | human-mouse chimeric TNFR2 monoclonal antibody 27F6-hFc (antibody, V domains shown, Mouse V regions of clone 27F6 with human constant regions) VH: EVQLQQSGTVLARPGASVKMSCKTSGYTFTSYWMHWVKQRPGQGLEWIGTIYPGNSDTSYNQKFKGKAKLTAVTSASTAYMELNSLTNEDSAVFYCTRENLLLRSYFFDYWGQGTTLTVSS VL: DIVMTQSPASLAVSLGQRATISCKASQSVDYDGDSYLNWYQQKPGQPPKLLIYAASNLPSGIPARFSGSGSGTDFTLNIHPVEEEDAATYYCQQSNEDPRTFGGGTKLEIK
